Laboratory results taken from the supplement of paper PMC9170038.

System: MS2 coat protein
Assay: apparent KD of MS2 coat protein; designed switch direction (-1 OFF switch, 1 ON switch): -1; higher = weaker reporter binding
In short: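 The reported apparent KD is a per-design median over clusters, from curve fits of normalised cluster fluorescence. Protein titrations used SNAP-549-labelled MS2 coat protein, doubled from 0.7 or 1.5 nM to 3 µM, in Tris-HCl pH 7.5 buffer with KCl, MgCl2, BSA, DTT, tRNA and Tween-20, with no input, 200 uM small-molecule ligand, or an oligonucleotide input. The RNA switches were transcribed on Illumina chips by stalled E. coli RNA polymerase.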

[1] = Eterna round: R95, input ligand: FMN 200 uM
[2] = Eterna round: R95, input ligand: microRNA oligo, concentration not stated
[3] = Eterna round: R95, input ligand: none
[4] = input ligand: microRNA oligo, concentration not stated

Row | Sequence | apparent KD of MS2 coat protein (input ligand: FMN 200 uM) | apparent KD of MS2 coat protein (input ligand: none) | apparent KD of MS2 coat protein [1] | apparent KD of MS2 coat protein [2] | apparent KD of MS2 coat protein [3] | apparent KD of MS2 coat protein [4]
1 | UUUAGUUUAGGAUAUGUAGAUUUUAACAUGAGGAUCACCCAUGUAGAUCCUGAAUUAACUACAGAAGGGAACAUUU [Mod of Brourd 14 - Jieux - Exclusion 5] (Eterna round: R97, puzzle: Exclusion 5) | 124 nM | 154 nM | – | – | – | –
2 | AACACGGGAGGAUAUGCGACAGGAAACAUGAGGAUCACCCAUGUGGAUGGUCGUACAAACGUAGAAGGCCCGCCCA [Eternabot (Original) Solution 1] (Eterna round: R97, puzzle: Exclusion 5) | 12.9 nM | 15.3 nM | – | – | – | –
3 | GAAGAUCUGCAGGAUAUGAGACUGAAACAGUUCUCAGAAGGGCGGACAUGAGGAUCACCCAUGUAAGACUGCAA [Eternabot (Original) Solution 4] (Eterna round: R97, puzzle: Exclusion 6) | 41.6 nM | 78.8 nM | – | – | – | –
4 | CUCCUCGUGGCGCCUAAACACAUGAGGAUCACCCAUGUACAGGCUUUUUGCCGUCUUACAAUAAAACCGAGGAUACG [Inveon] (puzzle: Sensor v3, turn-off variant 1) | – | – | 19.8 nM | 50.8 nM | 20.4 nM | –
5 | GUGACACAUGAGGAUCACCCAUGUGAGGAUAUAUCCGACUAUGAAAGGGUGUAGCAGGAUAGAAGGUACUGGCG [Eternabot (L2) Solution 54] (Eterna round: R97, puzzle: Exclusion 1) | 83.1 nM | 104 nM | – | – | – | –
6 | CGGCGACAUGAGGAUCACCCAUGUGAGGAUAUGACGGGAAAAGCGUGAGCGGUUUGUGUCAGAAGGCGCGUAGG [salish99_ex1_r4_084] (Eterna round: R97, puzzle: Exclusion 1) | 20.8 nM | 28.7 nM | – | – | – | –
7 | GAAAAGGUAGGAUAUACGAAAAAUAAGGGUAGAAAAAAAACACAUGAGGAUCACCCAUGUAGAAGGACCAAAAG [salish99_ex2_r3_082] (puzzle: Exclusion 2) | – | – | 65.7 nM | 27.8 nM | 33 nM | –
8 | GGCAAACAUGAGGAUCACCCAUGUCAGGAUAUUAGGCGAUCGUCGAAAGACGAUAGCCUGAGAAGGGACAUGCC [Eli x1 4.16] (Eterna round: R97, puzzle: Exclusion 1) | 238 nM | 103 nM | – | – | – | –
9 | AAGAUGCGGAUAGGAUAUGGAAAAAAAAAAAAAUUAGAAGGGUUGGUUAAAAUACAUGAGGAUCACCCAUGUGAAUCAUGAGAA [AK ExNG1-2.1] (Eterna round: R96, puzzle: Exclusion NG 1) | 159 nM | 159 nM | – | – | – | 127 nM
10 | CCGCGUGUCGGACUGGGUUACAUGAGGAUCACCCAUGUUCGGUAAACUAAGCGUUUGCUCGUCUAAACCAUUCUCGA [Eternabot (Original) Solution 24] (Eterna round: R97, puzzle: Sensor, turn-off variant 1) | 175 nM | 205 nM | – | – | – | –
11 | AAUAACAGAGGAUAUACUAUUUUAUGUAUUUAUUAUUUUGAACAUGAGGAUCACCCAUGUAGAAGGCUGAAUAA [JMF 20] (puzzle: Exclusion 2) | – | – | – | 19.9 nM | – | –
12 | CCCAGUUAUUCAGGAUAUUGUACAUGAGGAUCACCCAUGUAAUAAAUGAGGAUUUCGGGUGUCUACAAGAAGGGAAGGAUAGGC [Ostracism 19 - Jieux - Exclusion NG 2] (Eterna round: R96, puzzle: Exclusion NG 2) | 26.5 nM | 29.3 nM | – | – | – | 23.8 nM
13 | CUAAAUCAUGUAGGAUAUGCGUGGCAAAGCUAUGCAGAAGGACAUGAGGAUCACCCAUGUGCUUCCGUCUGCGUACAGACGGUA [Mat - Exclusion NG 1 - Mod of JL - D21] (Eterna round: R96, puzzle: Exclusion NG 1) | 551 nM | 110 nM | – | – | – | 79.2 nM
14 | AUGCUCAUAGGAUAUAGAUUGAUUCACAUGAGGAUCACCCAUGUAAACUCUACUUUUUAACUAGAAGGAUGUUUUU [JR_E5_Sub018] (puzzle: Exclusion 5) | – | – | – | 25.3 nM | – | –
15 | UGGCUACCUUGGUGCUCUACAAGCUUUUUGCUCGUUUUAACAUGAGGAUCACCCAUGUCUAGUGGAUCUGAUCGGGC [JL ViennaUCT Isreen mod 1] (puzzle: Sensor v3, turn-off variant 2) | – | – | 62.1 nM | 139 nM | 62.7 nM | –
16 | UUGGAACAUGAGGAUCACCCAUGUCAGGAUAUUCCAAAAUCGUCGAAAGACGAUAACAGAAGAAGGGACAUUAG [Fiskxlusion 9 - Jieux - Exclusion 1] (Eterna round: R97, puzzle: Exclusion 1) | 124 nM | 80.2 nM | – | – | – | –
17 | UGUGCUUCAGGAUAUACGUGACGUCCGUGAGGACGAAGGUUACAUGAGGAUCACCCAUGUAGAAGGGAAGUACU [Mat - Exclusion 2 - JL Mod - D30] (Eterna round: R97, puzzle: Exclusion 2) | 110 nM | 20.2 nM | – | – | – | –
18 | CUUAGGUGAGGAUAUUAGUAGUAAAUAAAUAAAAUUAUUACUGAGAAGGCACAUGAGGAUCACCCAUGUUCCUC [Salish 062 v3] (Eterna round: R97, puzzle: Exclusion 4) | 548 nM | 37 nM | – | – | – | –
19 | AUAAAUCAUGUAGGAUAUGCGUGGCGAAGCUAUGCAGAAGGACAUGAGGAUCACCCAUGUUCUAGCGUCUGAGUACAGAUGCAA [Mat - Exclusion NG 1 - Mod of JL - D3] (Eterna round: R96, puzzle: Exclusion NG 1) | 72.5 nM | 22.9 nM | – | – | – | 18.5 nM
20 | GUGAAGAAGUUAGUGGCCUACAUGAGGAUCACCCAUGUGAGGGAAAUGUUGAGGCGAAAGUUGUGUGCUCGUCUGUA [JR_SV3TOV1_Sub040] (puzzle: Sensor v3, turn-off variant 1) | – | – | 27.1 nM | 52.1 nM | 31.1 nM | –
21 | AGCUGUGGCCGAGGAUAUCUACAUGAGGAUCACCCAUGUAAAGGGUGUAUCGGGAAAACCUCGAUGGAGAAGGCGGUCUCAGCA [Eli eng2 - 047] (Eterna round: R96, puzzle: Exclusion NG 2) | 95.5 nM | 296 nM | – | – | – | 45.3 nM
22 | CUAGAUCUUCGGAUCUAGUACAUGAGGAUCACCCAUGUGACGAGUAGAUCCUCAAACAAGCUUUUUGCUCGUCUUAU [Sensor v3 - Turn-off variant 1 - 20] (puzzle: Sensor v3, turn-off variant 1) | – | – | 43.3 nM | 9.51 nM | 111 nM | –
23 | UCAUGUAUGUAGGAUAUCGAUGUCUGCGGACAUCGAGAAGGACGUACAUGAGGAUCACCCAUGUAACUUGCAUG [Exclusion 6 - B - 11:e] (puzzle: Exclusion 6) | – | – | 31.9 nM | 17.8 nM | 13.1 nM | –
24 | GGCAUCGGAGGAUAUACUUAUGGUGAUACCGGAAGCUUUCUACUUGAGGAUCACCCAAGUAGAAGGCCGAUGCC [jl-ex2.4.84 ViennaUCT mod] (Eterna round: R97, puzzle: Exclusion 2) | 9.01 nM | 22.9 nM | – | – | – | –
25 | AUGAGGUUAGGAUAUACAUGAGGAUCACCCAUGUUGAAAGGUUAGGUAGGCGGAGCUGGUAGAAGGAACGGAGC [JR_Exclu3_Sub056] (puzzle: Exclusion 3) | – | – | – | 27.8 nM | – | –
26 | AUAUUGUGAGGAUAUGAUCUUAGUAUCGAAAGAUACUAAGUUCAGAAGGCACAUGAGGAUCACCCAUGUUUCUC [Long static hairpin v14] (Eterna round: R97, puzzle: Exclusion 4) | 982 nM | 70.6 nM | – | – | – | –
27 | ACAUUACAUGAGGAUCACCCAUGUGAGGAUAUGGAGCGAUAGUGUCCUGUCGCGUACACCAGAAGGCGCGGGUG [1st #49] (Eterna round: R97, puzzle: Exclusion 1) | 242 nM | 271 nM | – | – | – | –
28 | UUUUUAUUUUUUUAUUUUGACAUGAGGAUCACCCAUGUCACGAGCAGAUCUUCAUGCAAGCUUUUUGCUCGUCUUAU [Sensor v3 - Turn-off variant 1 - 40] (puzzle: Sensor v3, turn-off variant 1) | – | – | 58.3 nM | 141 nM | 98.4 nM | –
29 | AGAAGUAGUAACCGAUCCUACAUGAGGAUCACCCAUGUAGCUAGACGUGCACGCGAGGCUCGUCAGACUACCAGAUG [salish99_TOv1_r3_028] (puzzle: Sensor v3, turn-off variant 1) | – | – | 210 nM | 133 nM | 289 nM | –
30 | GUCUGCACGCUGCGGUCCUACAUGAGGAUCACCCAUGUGGUCUGGUGGCGUGGGUCGCCGGACUUGGCUCGUCUUGA [salish99_S_TOV1_R5_045] (Eterna round: R97, puzzle: Sensor, turn-off variant 1) | 16.5 nM | 15.9 nM | – | – | – | –
